Data: PMC8383114

Molecular target: C18 (a CaM binding peptide from CaMKIIα)
Experiment: FRET or BRET

Work on “WT-CaM of the BRET construct (Venus, CaM, target peptide, RLuc8) (from UniProt P0DP26 1-149) (natural protein)” yielded a Kd from the Ca2+ titration curve of the BRET construct of 3.92 µM.
